The record followed here is US20200207857A1.

Experiment [1] deals with Recombinant protein Claudin 18.2. The experiment is described as follows: binding study 'as in Example 1'; method not named (ELISA on recombinant Claudin 18.2 assumed).
Experiment [2] shares this target. The experiment is described as follows: ELISA-based assay on Claudin 18.2, y axis RLU; Kd table under the graph, no unit in the table, unit from the x axis log[antibody] nM. (In general: An ELISA detects its analyte on a solid surface through an enzyme-linked reagent.)
Experiment [3] has the same target. The experiment is described as follows: ELISA on plate-coated recombinant Claudin 18.2, OD450; Kd table under the graph, no unit in the table, unit from the x axis log[antibody] nM.
Experiment [4] has the same target. The experiment can be described thus: ELISA, recombinant Claudin 18.2 coated at 4.5 ug/mL (Example 67), OD450; Kd box under the graph without column head (the only rising curve is h5C9o_CLN18.2), no unit in the box, unit from the x axis log[antibody] nM.
Experiment [5] shares this target. The experiment can be described thus: ELISA on plate-coated recombinant Claudin 18.2, OD450; Kd table under the graph, no unit in the table, unit from the x axis log[antibody] nM. This is another data set of the same source.
The target is the same in experiment [6]. The experiment is described as follows: ELISA as in Example 1, recombinant Claudin 18.2 coated on the plate, OD450, linear axis in ng/ml.
The target is the same in experiment [7]. The experiment can be described thus: ELISA on plate-coated recombinant Claudin 18.2, OD370; Kd table under the graph, no unit in the table, unit from the x axis log[antibody] nM.
Experiment [8] deals with human Claudin 18.1 (CLDN 18.1) expressed on HEK293 cells (human) (UniProt P56856). The experiment can be described thus: flow cytometry, 293T-CLDN18.1 cells, FL1-A histogram, gate P1; untransfected 293T: M1 0.0%.
Sequence of human Claudin 18.1 (CLDN 18.1) expressed on HEK293 cells (human) (P56856 whole entry): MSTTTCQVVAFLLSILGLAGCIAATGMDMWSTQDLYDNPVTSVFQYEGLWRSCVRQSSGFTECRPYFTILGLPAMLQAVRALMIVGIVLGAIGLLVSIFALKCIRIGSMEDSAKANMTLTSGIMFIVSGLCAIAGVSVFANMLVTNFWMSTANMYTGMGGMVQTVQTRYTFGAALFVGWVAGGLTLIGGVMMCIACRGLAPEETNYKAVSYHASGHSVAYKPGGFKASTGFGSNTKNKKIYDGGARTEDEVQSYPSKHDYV

Sequence of Recombinant protein Claudin 18.2 (chain, as listed by the source limits assumed, form in doubt): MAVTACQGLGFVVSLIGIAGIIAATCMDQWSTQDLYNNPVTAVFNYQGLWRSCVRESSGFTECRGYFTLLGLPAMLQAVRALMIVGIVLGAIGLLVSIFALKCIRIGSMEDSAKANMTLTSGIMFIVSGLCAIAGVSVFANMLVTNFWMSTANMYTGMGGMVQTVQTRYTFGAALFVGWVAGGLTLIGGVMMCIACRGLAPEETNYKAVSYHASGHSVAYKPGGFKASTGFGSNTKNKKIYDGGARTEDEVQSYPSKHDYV

B1: Anti-CLDN 18.2-7H1 (antibody, V domains shown)
VL: DIVLTQSPAILSVSPGEKVTMTCRASSSVSYMHWYQQKPGSSPKPWIYGTSNLASGVPARFSGSGSGTSYSLTISRVEAEDAATYYCQQWSSNPLTFGTGTKLELK
V domain: KVQLQESGGGSVQPGGSLKLSCAASGFTFSSYSMSWVRQTPEKRLEWVAYISNLGGATYYPDTVKGRFTVSRDNARNSLYLQMTSLKSDDTAMYYCTRHNYGYDGFADWGQGTLATVSA
What is called Kd is a measure of binding affinity in units of concentration. On to B1, for which, in experiment [1], the Kd came out at 0.267 nM.

B2: Anti-CLDN 18.2-5C9o (humanized antibody h5C9o) (antibody, V domains shown)
VH: EVQLVESGGGLVQPGGSLRLSCAVSGYTFSMNWVRQAPGKGLEWVAWINMYTGEPTYADDFKGRFTISRDDSKNTLYLQMNSLRAEDTAVYYCARLYNGNSLDYWGQGTLVTVSS
VL: DIQMTQSPSSLSASVGDRVTITCKSSQSLLNSGNQKSYLTWYQQKPGKAPKLLIYWASTLESGVPSRFSGSGSGTDYTLTISSLQPEDFATYYCQNAYSFPFTFGQGTKVEIK
Regarding B2, the dissociation constant Kd in experiment [2] came out at 0.14 nM; in experiment [3] it was 0.128 nM; in experiment [4], 0.0873 nM; in experiment [5] it was 0.0892 nM.

B3: Anti-CLDN 18.2-9A1 (antibody, V domains shown)
VH: VQLQQSGAELVRPGTSVKVSCKASRYAFTNYLIEWVKQRPGQGLEWIGMINPGSGGTHYNEKFKVKATLTADKSSSTAYMQLSSLTSDDSAVYFCARGGFGNSFAYWGQGTLVTVSA
VL: DILLTQSPLSLTVTAGEKVTMSCKSSQSLLNGGNLKNYLTWYQQKPGQPPKLLTYWASTRESGVPVRFTGSGSGTDFTLTISSVQAEDLAVYYCQNGYFYPYTFGGGTKLEIK
Usually EC50 (read off the curve) stands for the midpoint of the concentration-response curve. Regarding B3, the EC50 (read off the curve) in experiment [6] was determined as 0.06 µg/mL. Besides, in experiment [7], the equilibrium dissociation constant (Kd) was determined as 0.0536 nM. The molecule also gave a % of cells in gate M1 in experiment [8] of 1.3%.

B4: Anti-CLDN 18.2-5H1 (antibody, V domains shown)
VH: VQLQESGAELVRPGTSVKVSCKASGYAFTNYLIEWIKQRPGQGLEWIGMINPGSGGTKYNEKFKGKASLTADKTSSTAYMQLSSLTSDDSAVYFCARGGFGNSFAYWGQGTLVTVSA
VL: DIMMTQSPLSLTVTAGEKVTMTCKSSQSLLNSGNLKNYLTWYQQKPGQPPKLLTYWASTRESGVPTRFTGSGSATDFTLTISSVQAEDLAVYYCQNAYFYPYTFGGGTKLEIK
For B4, the Kd in experiment [1] stood at 0.32 nM.
